Laboratory results taken from patent US20080026998 (published 2008).
Read-outs that look alike come from different tables or passages of the source.

T1: plasmin (human, UniProt P00747)
T1 chain: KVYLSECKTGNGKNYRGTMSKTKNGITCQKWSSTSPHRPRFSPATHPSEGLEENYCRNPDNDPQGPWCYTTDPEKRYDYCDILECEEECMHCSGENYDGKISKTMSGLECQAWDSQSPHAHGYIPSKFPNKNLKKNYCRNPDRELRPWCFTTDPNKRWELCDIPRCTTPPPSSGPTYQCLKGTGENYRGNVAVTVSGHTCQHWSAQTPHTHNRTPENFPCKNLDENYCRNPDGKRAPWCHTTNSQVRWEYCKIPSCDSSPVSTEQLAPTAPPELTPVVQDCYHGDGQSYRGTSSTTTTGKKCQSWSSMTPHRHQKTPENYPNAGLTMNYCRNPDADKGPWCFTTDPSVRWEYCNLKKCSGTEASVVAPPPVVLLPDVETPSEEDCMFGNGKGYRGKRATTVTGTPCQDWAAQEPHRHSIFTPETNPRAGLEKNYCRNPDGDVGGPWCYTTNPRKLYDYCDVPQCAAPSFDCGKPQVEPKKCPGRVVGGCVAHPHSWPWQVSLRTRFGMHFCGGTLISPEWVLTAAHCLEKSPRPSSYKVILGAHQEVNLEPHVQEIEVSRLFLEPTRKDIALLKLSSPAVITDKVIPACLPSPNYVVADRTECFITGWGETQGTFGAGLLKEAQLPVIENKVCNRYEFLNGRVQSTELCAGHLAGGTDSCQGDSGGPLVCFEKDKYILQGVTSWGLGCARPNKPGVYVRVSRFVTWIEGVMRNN


Experiments:
plasmin [1] = biological target: T1, plasmin
plasmin [2] = biological target: T1, plasmin
plasmin [3] = biological target: T1, plasmin
plasmin [4] = biological target: T1, plasmin
plasmin [5] = biological target: T1, plasmin

| Ki (plasmin [1]) [nM] | Ki (plasmin [2]) [nM] | Ki (plasmin [3]) [nM] | Ki (plasmin [4]) [nM] | Ki (plasmin [5]) [nM] | Binder |
| --- | --- | --- | --- | --- | --- |
| 9.7 | 7.5 | 5.3 | 6.4 | – | KD1 wild-type (protein) DAAQEPTGNNAEICLLPLDYGPCRALLLRYYYDRYTQSCRQFLYGGCEGNANNFYTWEACDDACWRIEKVPKV |
| 1.06 | 1.5 | 0.625 | 1.25 | 2.2 | KD1 R24K/L26R (protein) DAAQEPTGNNAEICLLPLDYGPCKARLLRYYYDRYTQSCRQFLYGGCEGNANNFYTWEACDDACWRIEKVPKV |
| 1.33 | 4.6 | 1.1 | 1.02 | – | KD1 R24K (protein) DAAQEPTGNNAEICLLPLDYGPCKALLLRYYYDRYTQSCRQFLYGGCEGNANNFYTWEACDDACWRIEKVPKV |
